Measured values as given in US11994512B2, “Single-cell genomic methods to generate ex vivo cell systems that recapitulate in vivo biology with improved fidelity” (Massachusetts Institute of Technology, priority 2018, dated 2024).

B1: Q3UGF1 (protein, UniProt Q3UGF1 1-1341, looked up)
chain: MKRVFSLLEKSWLGAPIQFAWQKSSGNYLAVTGADYIVKIFDRHGQKRSEISLPGNCVTMDWDKDGDILAVIAEKSSCIYLWDANTNKTSQLDNGMRDQMSFLLWSKIGSFLAVGTIKGNLLIYNHQTSRKIPVLGKHTKKITCGCWNSENLLALGGEDKMITVSNQEGDTIRQTPVKSEPSDIKFSMSKTDERISSAENTISAVVGKKMLFLFHLNEPDNPVDLEFQQAYGNIVCYSWYGDGYIMIGFSRGTFLAISTHFPEVGQEIFKARDHKDNLTSVALSQTLNKAATCGDNCIKIHDLTELRDMYAIINLDDENKGLGTLSWTDDGQLLALSTQRGSLHVFLTKLPILGDACHTRIAYLTSLLEVTVANLIEGEPPITVSVDVEPTFVAVGLYHLAVGMNNRAWFYVLGENVVKKLKDVEYLGTVASICLHSDYAAALFEGKIQLHLIENEMLDAQEERETRLFPAVDDKCRILCHALTSDFLIYGTDTGIIHYFFIEDWQFVNDYRHPVGVKKLFPDPNGTRLVFIDEKSDGFVYCPVNDATYEIPDFSPTIKGVLWENWPMDKGVFIAYDDDKVYTYAFHKDTIQGSKVILAGSTKLPFSHKPLLLYNGELTCQTQSGKINSIYLSTHSFLGSMKDTEPTDLRQMLTQTLLLKRFSDAWDICKMLNDRTSWSELAKACLHHMEVEFAIRVSRTMGDVGTVMSLEQIKGIEDYNLLAGHLAMFTNDFNLAQDLYLASNCPVAALEMRRDLQHWDSALQLAKRLAPDQIPFISKEYAIQLEFTGDYVNALAHYEKGITGDNKEHDEVCLAGVAQMSIRMGDIRRGANQALKHPSRVLKRDCGAILENMKQFSEAAQLYEKGQYYDRAASVYIRCKNWAKVGELLPHVSSPKIHLQYAKAKEADGRYKEAVVAYENAKQWNSVIRIYLDHLNNPEKAVSIVRETQSLDGAKMVARFFLQLGDYGSAIQFLVLSKCNNEAFTLAQQHNKMEIYADIIGAEDTTNEDYQSIALYFEGEKRHFQAGKFFLLCGQYSRALKHFLKCPSSEDNVAIEMAIETVGQAKDELLTNQLIDHLMGESDGMPKDAKYLFRLYMALKQYREAARTAIIIAREEQSAGNYRNAHDVLFSMYAELKAQKIKIPSEMATNLMILHSYILVKIHVKSGDHMKGARMLIRVANNISKFPSHIVPILTSTVIECHRAGLKNSAFSFAAMLMRPEYRNKIDAKYKKKIEAMVRRPDTSETEEATTPCPFCQFLLPECELLCPGCKNNIPYCIATGRHMLKDDWTMCPHCGFPALYSEFKILLNSESTCPMCSERLNSSQLKKITDCSQYLRTEME
modifications: full-length
B2: Q3UHD3 (protein, UniProt Q3UHD3 1-1353, looked up)
chain: MSVPLAPKKSCFGQLRDHREGAKNNNESILRTGDTNANQIMLEVSSSCDEAKSRDLDDELGNSNLSRPQYHSHFQKEPLHLQGFGKGSQAGSTSQRESQASLTVHRQLSEEHAVKRGALQAPQCVQGPSLSSWRNAVGQASPEASAKKDAEIPRHIPKDKLAKTLDNEELKRASSCSAAAGSVPPTDLQPVQLDTLGPQDHVPARGEGPQRTPASHSPGKGFSPGEGTSEGNSVYLPKPSTSEAKGSSPSDTKMEGPHGLDVYNERITHAELTPSSASASKENPGLRHPEVCLGQGTGKSKVELKSVQPRNEEGLTSAQAQGPGCHEERSMSPVERQELLEKAYREATSQGNSSHRQLGVRRGSSLEEMTGVSAGVEGSQQATPTLSAAPAGEAGTRLTGKMSAGVGRMARETASGQTAPDVGQAAPVRRDPTESVPSEVSGEERRLGSGNSGSTKLLASGPSAGGSRTDTSGLLSPRGSNLEARKGKEMVAENRNLLENAAQTDNTPAGVDSAFSTPAPLLHPETTVNSSHHPTPPGSSSQELGVFSGDTGSPSVASPPTDGGQVLNTSPKVPDRTTCSSGIPKPPTHPKDTPSSQEAREKLETEKMEERAEAKPILMPKPKHVRPKIITYIRRNPQALSQGDASLVPVGLPYAPPTCGMPLPQEEKAASRDLQPSANMYEKLKPDLQKPRVFPSGLMVSGIKPPAHHFSQMSEKFLQEVADHPGKEEFCSPPYTHYEVPPTFYRSAMLLKPQLGLGAMSRLPSTKSRILIASQRSSASAIHPPGSLTTAASFYGSDPSDLKKASNSNAAKASLPKSGLRPPGYSRLPAAKLAAFGFVRSSSISAVPSSQSLDSVQPEQSRPVTRSTFGNEEQAPLKQALPSKDTPKGAGRAAPASSSNATTPRRSLLPAPKSTSTPAGAKKELQKDPEAKKPAVSSPKRTASAATKPHSPGYPKQRTSAPRNEFPPKPDLQAREAERQLAQRLRDRCEWQARQLGLARRELKKAIQGFDALAVSTKHFFGKSERALAKEKELSIELANIRDEVAFNTAKCEKLQKEKETLERRFEEELRRLGWQQQAEVQELQERLQQQFQAESARLQAEHQDQLLRMRCQHQEQVEDITASHEAALLEMENNHTVAITILQDDHDHKVQELMSTHEFEKKELEENFEKLRLTLQDQVDTLTFQSQSLRDRARRFEEALRKTTEEQLEIALAPYQHLEEDMQSLKQVLEMKNQQIHLQEKKIIELEKLVEKNIILEERIQVLQQQNEDLKARIDQNTVVTRQLSEENANLQEYVEKETQEKKRLSRTNEELLWKLQTGDPTSPIKLSPTSPVYRGSSSGPSSPARVSTTPR
modifications: full-length
B3: Q3UR50 (protein, UniProt Q3UR50 1-1248, looked up)
chain: MPGLYCPTSWTPLPLTDSCVRAYAKGPCLSLRARLTYHNPQPQPVEGVFVYPLAEAEVVSGFEAEAAGRRVSFQLHSRRRSQAACCRALGPGLGTSTPRRCAQGHLVLNLAQARSTLVLPTGLVAAAGTMTVTLCSSRELPSRPDGVMHVALPTVFTPLAQPNLPGSPRSPGLCDDSPTSCFGVGSPEEERPTWEQPTATPDVFSGPARCPAPYTFSFEMLVTGPCLLAGLESPSHALRADALPHASSAATIRVTLAEGHQCDRALEILLHPSEPHQPHLMLETGSLSSAEYEAQVRARHDFQRLQQRDSGGERQVWFLQRRFHKDILLNPVLVLNFCPDLSSKPGHLNAATRELLFLLDGSGAGHKDAIVLAVKSLPAQTLVNLAIFGTLVQPLFPESRPCSDDTVQLICESIETLQTVNGPPDMLAVLDWALGQPQHRAYPRQMFLITAASPTAATTHQALEFMRWHRGAARCFSFALAPACRQLLHDLSVLSRGQAYFLRPGERLQPKLVQALRKALEPALSDISVDWFVPDAVEALLTPREIPALYPGDQLLGYCSLFRVDGFRSHALGGQEPGWQSLAGSVFPSPEEVLSATSPGTEPTHTTEPLGTGTVSAELSSPWAVGDSEQSMEALTDPVMDPGPNPSSDTAIWRRIFQSSYIREQYVLTHCSASPEPGPGSTCSSESPGSQGPGSPSGSRPLDPPSQQGCRSLAWVEPAGSRSCPLPVPPPSPFKVGAMSAEVLGRRQRAALAGRSLSSPSGRANPVPGRARHPSLDAIPDGLGPEPGQQLGQGLDDSGNLLSPAPLDWDMLMEPSFLFKPVPSSAESAPPAECLPPQAPRCHVVIRALCGEQPMCWEVGVGLEELWGPGDGSQPESLPMREAAWDQALHRLTAASVVQDNEQLALRGRAETRAEQGRVRRSWLRAIQTSKVSSAPSCFTCPVAVDATTREVLPGALQVWSSDPAELSGMSASQDQLAAAPLSTAVHSKGHQGGCSAGAWDLDLNDNSKSALGEPISPTGDHHGLPHQPPASSRLSLGRHRRLCSSNKGQTHENSNDGSNHDYLPLVRLQEAPGSFRLDEPFCAAVCIPQERLCRASPFAAHRASLSPTSASSPWAFLSPGIGQGDSATASCSQSPSSGSEGPGQVDSGRGSDTEASEGMERQDSSDLRGRTWATAVALAWLEHRCAAAFGEWELTASKADCWLRAQHLPDGLDLTALKAAARGLFLLLRHWDQNLQLHLLCYSPSNV
modifications: full-length
B4: Q3UQ28 (protein, UniProt Q3UQ28 1-1475, looked up)
chain: MAVRPTRRCLLALLLCFAWWAMAVVASKQGAGCPSRCLCFRTTVRCMHLLLEAVPAVAPQTSILDLRFNRIREIQPGAFRRLRSLNTLLLNNNQIKKIPNGAFEDLENLKYLYLYKNEIQSIDRQAFKGLASLEQLYLHFNQIETLDPESFQHLPKLERLFLHNNRITHLVPGTFSQLESMKRLRLDSNALHCDCEILWLADLLKTYAQSGNAQAAATCEYPRRIQGRSVATITPEELNCERPRITSEPQDADVTSGNTVYFTCRAEGNPKPEIIWLRNNNELSMKTDSRLNLLDDGTLMIQNTQEADEGVYQCMAKNVAGEAKTQEVTLRYLGSPARPTFVIQPQNTEVLVGESVTLECSATGHPLPQITWTRGDRTPLPIDPRVNITPSGGLYIQNVAQSDSGEYTCFASNSVDSIHATAFIIVQALPQFTVTPQSRVVIEGQTVDFQCAAKGHPQPVIAWTKGGSQLSVDRRHLVLSSGTLRISGVALHDQGQYECQAVNIIGSQKVVAHLTVQPRVTPVFASIPSDMTVEVGTNVQLPCSSQGEPEPAITWNKDGVQVTESGKFHISPEGFLTINDVGTADAGRYECVARNTIGYASVSMVLSVNVPDVSRNGDPYVATSIVEAIATVDRAINSTRTHLFDSRPRSPNDLLALFRYPRDPYTVGQARAGEIFERTLQLIQEHVQHGLMVDLNGTSYHYNDLVSPQYLSLIANLSGCTAHRRVNNCSDMCFHQKYRTHDGTCNNLQHPMWGASLTAFERLLKAVYENGFNTPRGINSQRQYNGHVLPMPRLVSTTLIGTEVITPDEQFTHMLMQWGQFLDHDLDSTVVALSQARFSDGQHCSSVCSNDPPCFSVMIPPNDPRVRSGARCMFFVRSSPVCGSGMTSLLMNSVYPREQINQLTSYIDASNVYGSTDHEARSIRDLASHRGLLRQGIVQRSGKPLLPFATGPPTECMRDENESPIPCFLAGDHRANEQLGLTSMHTLWFREHNRIAAELLKLNPHWDGDTVYHETRKIVGAEIQHITYRHWLPKILGEVGMKMLGEYRGYDPSVNAGIFNAFATAAFRFGHTLINPLLYRLDENFEPIPQGHVPLHKAFFSPFRIVNEGGIDPLLRGLFGVAGKMRIPSQLLNTELTERLFSMAHTVALDLAAINIQRGRDHGIPPYHDYRVYCNLSAAYTFEDLKNEIKSPVIREKLQRLYGSTLNIDLFPALMVEDLVPGSRLGPTLMCLLSTQFRRLRDGDRLWYENPGVFSPAQLTQLKQTSLARILCDNSDNITRVQQDVFRVAEFPHGYSSCEDIPRVDLRVWQDCCEDCRTRGQFNAFSYHFRGRRSLEFSYEDDKPTKRARWRKALSVKHGKHLSNATSATHEHLEGPATNDLKEFVLEMQKIITDLRKQINSLESRLSTTECVDDSGESHGGNTKWKKDPCTVCECKNGQITCFVEACQPAACPQPVKVEGACCPVCLKNTAEEKP
modifications: full-length

system: intracellular proteome of ENR+CD and ENR organoids; assay: LC-MS/MS TMT proteomics of ENR+CD versus ENR organoids; assay type: cell-based, C57BL/6 mice; settings: protein abundance, ENR+CD versus ENR organoids; aggregate of the four sample pairs

First: B1
Second: B2
The “Average logFC” value of the first is lower: −1.153 for the first, 1.47 for the second.

B3 and B4 are within 0.2 log units of each other in “Average logFC” value: 1.46 for the first, 1.294 for the second.

same assay, conditions: protein abundance, ENR+CD versus ENR organoids; replicate M1-1; log2 ratio

First: B1
Second: B2
The “M1-1 Log2 Median Normalized” value of the first is lower: −0.199 for the first, 1.347 for the second.

Going from B3 to B4, the “M1-1 Log2 Median Normalized” value falls from 1.678 to 1.157.

same assay, conditions: protein abundance, ENR+CD versus ENR organoids; replicate M1-2; log2 ratio

Compared with B1, B2 is higher in “M1-2 Log2 Median Normalized” value: −0.895 for the first, 0.087 for the second.

Compared with B3, B4 is higher in “M1-2 Log2 Median Normalized” value: 1.171 for the first, 1.486 for the second.

same assay, conditions: protein abundance, ENR+CD versus ENR organoids; replicate M2-1; log2 ratio

Compared with B1, B2 is higher in “M2-1 Log2 Median Normalized” value: −1.3115 for the first, 1.7985 for the second.

Compared with B3, B4 is lower in “M2-1 Log2 Median Normalized” value: 1.6125 for the first, 1.3875 for the second.

same assay, conditions: protein abundance, ENR+CD versus ENR organoids; replicate M2-2; log2 ratio

First: B1
Second: B2
The “M2-2 Log2 Median Normalized” value of the first is lower: −2.206 for the first, 2.649 for the second.

Compared with B3, B4 is lower in “M2-2 Log2 Median Normalized” value: 1.377 for the first, 1.146 for the second.

same assay, conditions: up = enriched in ENR+CD, down = enriched in ENR; FDR<0.05 and log fold change cut-off

In the case of B1, the change is reported as “down”.
In the case of B2, the change is reported as “up”.
In the case of B3, the change is reported as “up”.
In the case of B4, the change is reported as “up”.
